IntAct's records for PubMed 22835334

B1: Huntingtin-interacting protein 1 (Homo sapiens), O00291 (parent)
chain: MDRMASSMKQVPNPLPKVLSRRGVGAGLEAAERESFERTQTVSINKAINTQEVAVKEKHARTCILGTHHEKGAQTFWSVVNRLPLSSNAVLCWKFCHVFHKLLRDGHPNVLKDSLRYRNELSDMSRMWGHLSEGYGQLCSIYLKLLRTKMEYHTKNPRFPGNLQMSDRQLDEAGESDVNNFFQLTVEMFDYLECELNLFQTVFNSLDMSRSVSVTAAGQCRLAPLIQVILDCSHLYDYTVKLLFKLHSCLPADTLQGHRDRFMEQFTKLKDLFYRSSNLQYFKRLIQIPQLPENPPNFLRASALSEHISPVVVIPAEASSPDSEPVLEKDDLMDMDASQQNLFDNKFDDIFGSSFSSDPFNFNSQNGVNKDEKDHLIERLYREISGLKAQLENMKTESQRVVLQLKGHVSELEADLAEQQHLRQQAADDCEFLRAELDELRRQREDTEKAQRSLSEIERKAQANEQRYSKLKEKYSELVQNHADLLRKNAEVTKQVSMARQAQVDLEREKKELEDSLERISDQGQRKTQEQLEVLESLKQELATSQRELQVLQGSLETSAQSEANWAAEFAELEKERDSLVSGAAHREEELSALRKELQDTQLKLASTEESMCQLAKDQRKMLLVGSRKAAEQVIQDALNQLEEPPLISCAGSADHLLSTVTSISSCIEQLEKSWSQYLACPEDISGLLHSITLLAHLTSDAIAHGATTCLRAPPEPADSLTEACKQYGRETLAYLASLEEEGSLENADSTAMRNCLSKIKAIGEELLPRGLDIKQEELGDLVDKEMAATSAAIETATARIEEMLSKSRAGDTGVKLEVNERILGCCTSLMQAIQVLIVASKDLQREIVESGRGTASPKEFYAKNSRWTEGLISASKAVGWGATVMVDAADLVVQGRGKFEELMVCSHEIAASTAQLVAASKVKADKDSPNLAQLQQASRGVNQATAGVVASTISGKSQIEETDNMDFSSMTLTQIKRQEMDSQVRVLELENELQKERQKLGELRKKHYELAGVAEGWEEGTEASPPTLQEVVTEKE

Variants of: B1
Conditions: with hd_human HTT

| Variant | effect of a mutation on the interaction |
| --- | --- |
| K510L | increasing interaction |
| T528L | increasing interaction |
